Results from patent US9395368B2, “Methods, agents and peptides for inducing an immune response to matrix metalloproteinase-2 expressing tumors” (New York University, priority 2010, dated 2016).

Experiments:
Assay type in all cases: cell-based, human
[1] = system: Cord blood-derived CD4+/CD25- cells; assay: Priming of naive CD4+ T cells to Melan-A/MART-1 or NY-ESO-1 with DCs pre-incubated with MMP-2
Protocol: (A) Cord blood-derived CD4^+/CD25^− cells were stimulated with autologous poly(I:C)-matured DCs pulsed with overlapping peptides spanning either Melan-A/MART-1 or NY-ESO-1. Prior to poly(I:C) addition, DCs were incubated with or without MMP-2 (active or heat-inactivated) for 1 h. MMP-2 enzymatic activity was controlled (FIG. 13C-D). After 15 days, CD4^+ T cells were stimulated with the Melan-A/MART-1 or NY-ESO-1 peptide pools (2 μM) for 6 h before intracellular staining of cytokines. Percentages of antigen-specific CD4^+ T cells, secreting indicated cytokines, are represented for all donors. (B) Contour plots showing percentages of cytokine-producing CD4^+ T cells are shown for representative donor CB45 primed to Melan-A/MART-1. Percentage of secreting cells upon peptide stimulation was considered specific/positive when it exceeded by more than twofold the background (cytokine-secreting cells in the absence of stimulation) and had more than 0.5% of responding cells (after background subtraction) for at least one cytokine. For each cytokine, 2 paired t-tests were used to compare priming in the presence of active MMP-2 to either priming in the absence of active MMP-2 or with HI MMP-2. The Bonferroni adjustment was used for multiple comparisons. P values≦0.025 (*) were considered statistically significant using a Bonferroni correction for 2 comparisons.
(§1) T Cell culture, stimulation and priming. Peripheral blood mononuclear cells (PBMCs) were purified from healthy donor-(HD) or cord blood donor-(CB) derived buffy coats (New York Blood Center) by Ficoll-Paque Plus (GE Healthcare) centrifugation. CD4^+/CD25^− cells were enriched (>90%) by magnetic cell sorting (Miltenyi Biotec) and primed/stimulated for 12-15 days either with irradiated (35Gy) autologous CD4^− cells or with autologous mature DCs in IMDM (GIBCO) supplemented with 1 mM HEPES (Life Technologies), 2 mM L-glutamine (Sigma), streptomycin (100 UI/mL)/penicillin (100 μg/mL) (Sigma) and 5% heat inactivated pooled human serum (PHS; Valley Biomedical) in the presence of rhIL-2 (10 UI/mL) and IL7 (5 ng/mL) (R&D Systems). Antigen presenting cells (CD4^− cells or DCs) were loaded either with peptides (2 μM) or with the MMP-2 protein (10 μg/mL) for 2 and 5 h, respectively. DCs were matured using the TLR3 agonist poly(I:C) at 5 μg/mL/10^6 DCs (Amersham). To generate T cell clones, we originally relied on our published methodology (Godefroy et al., 2006; Godefroy et al., 2007; the entire contents of each of which is incorporated herein by reference), involving enrichment of IFNγ-secreting cells upon short-term culture and peptide stimulation to generate MMP-2 responsive clones. Briefly, CD4^+ T cells were stimulated by CD4^− cells irradiated and pulsed with peptides for 12 days in the presence of rhIL-2 and rhIL-7. CD4^+ T cells were then restimulated with peptides for 3 hours before capturing IFNγ-secreting specific cells using a bispecific antibody coating T cells and capturing produced IFNγ. Positive cells were purified magnetically before being cloned. Although MMP-2-specific cells could be isolated, it was realized that IFNγ secretion was marginal compared to their secretion of IL-4 and TNFα. IFNγ-secreting cells in response to MMP-2 peptide pool were enriched by cytokine-guided magnetic cell sorting (Miltenyi Biotec) as described above and cloned the following day by limiting dilution in the presence of irradiated allogeneic PBMCs, 1 μg/mL phytohemagglutinin-L (Sigma) and 150 UI/mL rhIL-2. Tumor infiltrating lymphocytes (TILs) were provided by Pr. F. Jotereau and B. Dréno. They were obtained from tumor-invaded lymph nodes of melanoma patients (stage Mb) and expanded ex vivo. These patients received autologous TILs and IL-2 infusions in a clinical trial (Labarriere et al., 2002). This protocol was approved by the Institutional Ethics Committee and registered with regulatory state authority in France (Nantes). […]

[2] = system: Cord blood-derived CD4+/CD25- cells; assay: Priming of naive cord blood CD4+ T cells with autologous CD4- cells loaded with different sources of MMP-2; details: for percentage of MMP-2-specific CD4+ T cells secreting IL-4, mean: 11 cord blood donors, 15 days after priming, after background subtraction; for mean of the individual differences in IL-4 secreting cells versus priming with active MMP-2: paired within donors
Protocol: Cord blood-derived CD4^+/CD25^− cells from 11 donors were stimulated with irradiated autologous CD4^− cells loaded either with active MMP-2, heat-inactivated (HI) MMP-2 or with MMP-2 pre-incubated with a specific inhibitor (+I). After 15 days, CD4^+ T cells were stimulated with the MMP-2 peptide pool (2 μM) for 6 h before intracellular staining of cytokines. (A) Density plots representing cytokine production by CD4^+ T cells are shown for the representative donor CB35 primed to MMP-2 either in its active form or after heat-inactivation. Numbers indicate percentages of cytokine-producing cells upon MMP-2 peptide stimulation. […] MMP-2 enzymatic activity was controlled (FIG. 13C-D). For each cytokine, 3 paired t-tests were used to compare active MMP-2 to heat inactivated MMP-2, to MMP-2+I, and to MMP-2 peptides. P values≦0.0167 (*) were considered statistically significant using a Bonferroni correction for 3 comparisons.
T Cell culture, stimulation and priming. Peripheral blood mononuclear cells (PBMCs) were purified from healthy donor-(HD) or cord blood donor-(CB) derived buffy coats (New York Blood Center) by Ficoll-Paque Plus (GE Healthcare) centrifugation. CD4^+/CD25^− cells were enriched (>90%) by magnetic cell sorting (Miltenyi Biotec) and primed/stimulated for 12-15 days either with irradiated (35Gy) autologous CD4^− cells or with autologous mature DCs in IMDM (GIBCO) supplemented with 1 mM HEPES (Life Technologies), 2 mM L-glutamine (Sigma), streptomycin (100 UI/mL)/penicillin (100 μg/mL) (Sigma) and 5% heat inactivated pooled human serum (PHS; Valley Biomedical) in the presence of rhIL-2 (10 UI/mL) and IL7 (5 ng/mL) (R&D Systems). Antigen presenting cells (CD4^− cells or DCs) were loaded either with peptides (2 μM) or with the MMP-2 protein (10 μg/mL) for 2 and 5 h, respectively. DCs were matured using the TLR3 agonist poly(I:C) at 5 μg/mL/10^6 DCs (Amersham). To generate T cell clones, we originally relied on our published methodology (Godefroy et al., 2006; Godefroy et al., 2007; the entire contents of each of which is incorporated herein by reference), involving enrichment of IFNγ-secreting cells upon short-term culture and peptide stimulation to generate MMP-2 responsive clones. Briefly, CD4^+ T cells were stimulated by CD4^− cells irradiated and pulsed with peptides for 12 days in the presence of rhIL-2 and rhIL-7. CD4^+ T cells were then restimulated with peptides for 3 hours before capturing IFNγ-secreting specific cells using a bispecific antibody coating T cells and capturing produced IFNγ. Positive cells were purified magnetically before being cloned. Although MMP-2-specific cells could be isolated, it was realized that IFNγ secretion was marginal compared to their secretion of IL-4 and TNFα. IFNγ-secreting cells in response to MMP-2 peptide pool were enriched by cytokine-guided magnetic cell sorting (Miltenyi Biotec) as described above and cloned the following day by limiting dilution in the presence of irradiated allogeneic PBMCs, 1 μg/mL phytohemagglutinin-L (Sigma) and 150 UI/mL rhIL-2. Tumor infiltrating lymphocytes (TILs) were provided by Pr. F. Jotereau and B. Dréno. They were obtained from tumor-invaded lymph nodes of melanoma patients (stage Mb) and expanded ex vivo. These patients received autologous TILs and IL-2 infusions in a clinical trial (Labarriere et al., 2002). This protocol was approved by the Institutional Ethics Committee and registered with regulatory state authority in France (Nantes).
Intracellular staining T-bet and GATA-3 expression was measured on resting T cells. Cells were fixed (4% paraformaldehyde for 10 min at RT), permeabilized with 0.1% saponin, and stained for intracellular transcription factors. Cytokine production by T cells was also assessed by intracellular staining T cells were stimulated with 2 μM overlapping peptides. After 1 h, 10 μg/mL brefeldin A was added to the cells. […]

[3] = system: Cord blood-derived CD4+/CD25- cells; assay: Priming of naive CD4+ T cells with active MMP-2-loaded DCs with rhIL-12 or blocking mAb for OX40L or IL-4
Protocol: […] CD4^+ T cells were then stimulated with the MMP-2 peptide pool (2 μM) for 6 h before intracellular staining of cytokines. Contour plots representing cytokine production by CD4^+ T cells are shown for donor CB31 CD4^+ T cells primed to MMP-2 alone, or together with rhIL-12, anti-OX40L mAb or anti-IL-4 mAb. (B) Percentages of MMP-2-specific CD4^+ T cells, secreting indicated cytokines, are represented for all donors. For each cytokine, 5 paired t-tests were used to compare “no conditioning” versus various conditions. P values≦0.01 (*) were considered statistically significant using a Bonferroni correction for 5 comparisons.
as §1, with “TNFα.” for “TNFα. IFNγ-secreting cells in response to MMP-2 peptide pool were enriched by cytokine-guided magnetic cell sorting (Miltenyi Biotec) as described above and cloned the following day by limiting dilution in the presence of irradiated allogeneic PBMCs, 1 μg/mL phytohemagglutinin-L (Sigma) and 150 UI/mL rhIL-2. Tumor infiltrating lymphocytes (TILs) were provided by Pr. F. Jotereau and B. Dréno. They were obtained from tumor-invaded lymph nodes of melanoma patients (stage Mb) and expanded ex vivo. These patients received autologous TILs and IL-2 infusions in a clinical trial (Labarriere et al., 2002). This protocol was approved by the Institutional Ethics Committee and registered with regulatory state authority in France (Nantes).”
Intracellular staining T-bet and GATA-3 expression was measured on resting T cells. […] Cytokine production by T cells was also assessed by intracellular staining T cells were stimulated with 2 μM overlapping peptides. […]

[4] = rhIL-12 10 ng/mL or mAb 10 μg/mL throughout priming

B1: heat-inactivated MMP-2: MMP-2 enzyme inactivated by heating to 56° C. for 45 min (protein, UniProt P08253 110-660, looked up)
72 kDa type IV collagenase: YNFFPRKPKWDKNQITYRIIGYTPDLDPETVDDAFARAFQVWSDVTPLRFSRIHDGEADIMINFGRWEHGDGYPFDGKDGLLAHAFAPGTGVGGDSHFDDDELWTLGEGQVVRVKYGNADGEYCKFPFLFNGKEYNSCTDTGRSDGFLWCSTTYNFEKDGKYGFCPHEALFTMGGNAEGQPCKFPFRFQGTSYDSCTTEGRTDGYRWCGTTEDYDRDKKYGFCPETAMSTVGGNSEGAPCVFPFTFLGNKYESCTSAGRSDGKMWCATTANYDDDRKWGFCPDQGYSLFLVAAHEFGHAMGLEHSQDPGALMAPIYTYTKNFRLSQDDIKGIQELYGASPDIDLGTGPTPTLGPVTPEICKQDIVFDGIAQIRGEIFFFKDRFIWRTVTPRDKPMGPLLVATFWPELPEKIDAVYEAPQEEKAVFFAGNEYWIYSASTLERGYPKPLTSLGLPPDVQRVDAAFNWSKNKKTYIFAGDKFWRYNEVKKKMDPGFPKLIADAWNAIPDNLDAVVDLQGGGHSYFFKGAYYLKLENQSLKSVKFGSIKSDWLGC
modifications: heat-inactivated
IFNγ, mean of differences relative to priming in the presence of active MMP-2 [1]: 0.21 | IL-2, mean of differences relative to priming in the presence of active MMP-2 [1]: 0.11 | IL-4, mean of differences relative to priming in the presence of active MMP-2 [1]: 1.92 | percentage of MMP-2-specific CD4+ T cells secreting IL-4, mean [2]: 0.45% | mean of the individual differences in IL-4 secreting cells versus priming with active MMP-2 [2]: 1.80

B2: MMP-2+I: MMP-2 enzyme inactivated by addition of the MMP-2 inhibitor III at 100 nM for 20 min (protein, UniProt P08253 110-660, looked up)
72 kDa type IV collagenase: B1 72 kDa type IV collagenase
modifications: with MMP-2 inhibitor III
percentage of MMP-2-specific CD4+ T cells secreting IL-4, mean [2]: 0.12% | mean of the individual differences in IL-4 secreting cells versus priming with active MMP-2 [2]: 1.47

B3: rhIL-12: recombinant human IL-12 from R&D Systems (protein)
chain 1: RNLPVATPDPGMFPCLHHSQNLLRAVSNMLQKARQTLEFYPCTSEEIDHEDITKDKTSTVEACLPLELTKNESCLNSRETSFITNGSCLASRKTSFMMALCLSSIYEDLKMYQVEFKTMNAKLLMDPKRQIFLDQNMLAVIDELMQALNFNSETVPQKSSLEEPDFYKTKIKLCILLHAFRIRAVTIDRVMSYLNAS
chain 2: IWELKKDVYVVELDWYPDAPGEMVVLTCDTPEEDGITWTLDQSSEVLGSGKTLTIQVKEFGDAGQYTCHKGGEVLSHSLLLLHKKEDGIWSTDILKDQKEPKNKTFLRCEAKNYSGRFTCWWLTTISTDLTFSVKSSRGSSDPQGVTCGAATLSAERVRGDNKEYEYSVECQEDSACPAAEESLPIEVMVDAVHKLKYENYTSSFFIRDIIKPDPPKNLQLKPLKNSRQVEVSWEYPDTWSTPHSYFSLTFCVQVQGKSKREKKDRVFTDKTSATVICRKNASISVRAQDRYYSSSWSEWASVPCS
IFNγ-secreting cells ([3]; doses as low as 1 ng/mL): more | percentages of IL4-secreting T cells ([3]; doses as low as 1 ng/mL): lower percentages | IFNγ secretion by primed MMP-2-specific CD4+ T cells versus no conditioning [3, 4]: more | IL-4 secretion by primed MMP-2-specific CD4+ T cells versus no conditioning [3, 4]: less
